Patent publication US12116636B2, “Methods for evaluating tumor cell spheroids using 3D microfluidic cell culture device” (Dana-Farber Cancer Institute, Inc., priority 2017, dated 2024)

Tested on: MC38 MDOTS
Assay: RNA-seq of MDOTS after ex vivo treatment
Type: cell-based, murine
Details: Day 6
Source text: RNA is collected from a subset of the MDOTs within the device after the supernatants have been collected and cDNA libraries for RNA sequencing is generated to evaluate global transcriptome changes associated with treatment regimen on single samples per drug treatment. These types of data may be generated from a variety of clinical specimens. The RNA Advance tissue RNA isolation method (Beckman Coulter) is utilized, which is a bead wash based separation technique, which facilitates elution volumes amenable to sample input for RNA-Seq library preparation. Automated library preparation can be performed using as little as 10 ng of good quality RNA. The RNA Access method from Illumina is utilized, which enriches for the coding region of the genome. Libraries are sequenced on the NextSeq500 platform, as 75 bp Single End to generate approximately 20 million reads per sample. With appropriate adaptors, 24 samples are multiplexed on each NextSeq500 run. The concentration [ng/ul], yield [ng] and quality of RNA (high RIN #by bioanalyzer) derived from the MDOTS are more than sufficient to ensure good quality libraries for subsequent sequencing (FIG. 15).
The STAR RNA sequencing alignment tool (Spliced Transcripts Alignment to a Reference) [STAR_2.5.0a]) is utilized to align the data to the genome (RefSeq gene annotations). […]

B1: IFNγ: interferon gamma used as MC38 MDOTS treatment in RNA-seq (protein, UniProt P01580 23-155, looked up)
Interferon gamma: HGTVIESLESLNNYFNSSGIDVEEKSLFLDIWRNWQKDGDMKILQSQIISFYLRLFEVLKDNQAISNNISVIESHLITTFFSNSKAKKDAFMSIAKFEVNNPQVQRQAFNELIRVVHQLLPESSLRKRKRSRC
B1 was tested, and the “expression of IFNγ genes incl. CXCL10, CXCL11, PD-L1, IDO1, IDO2 (RNA-seq) in MC38 MDOTS” value was “induced”.
